According to patent US20030027314A1:

Tests used:
c-Jun (unmodified) [1] = assay: thermal melting curve, mixture (FIG. 4)
[2] = molecular target: bHLH MAX (unmodified Max); assay: homodimer, study of FIG. 9 (method not given)
[3] = molecular target: c-Myc bHLH protein (murine) (UniProt P01108); assay: heterodimer with c-Myc, study of FIG. 9 (method not given)
c-Jun (unmodified) [4] = assay: from thermal melts, Kd at 37 °C (FIG. 4)
Target sequence in this assay (chain, from a related filing, as listed by the source): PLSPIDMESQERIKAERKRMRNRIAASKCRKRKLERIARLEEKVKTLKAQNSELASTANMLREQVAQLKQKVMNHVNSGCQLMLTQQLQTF

c-Fos (unmodified), sequence (P01100 other isoform, or with tags, fused parts or gaps limits assumed): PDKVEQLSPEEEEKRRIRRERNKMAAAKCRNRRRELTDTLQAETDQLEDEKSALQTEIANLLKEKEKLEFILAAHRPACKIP
bHLH MAX (unmodified Max), sequence (P61244 22-113): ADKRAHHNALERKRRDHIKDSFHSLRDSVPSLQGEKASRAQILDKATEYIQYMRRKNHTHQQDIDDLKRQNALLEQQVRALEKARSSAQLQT

Tm (c-Jun (unmodified) [1]) | Kd [2] | Kd [3] | Kd (c-Jun (unmodified) [4]) | Substance
53 °C | – | – | – | 0heptad-Fos (c-Fos with the basic region deleted)
– | 6000 nM | 30 nM | – | bHLH MAX (unmodified Max)
50 °C | – | – | 200 nM | c-Fos (unmodified) (from UniProt P01100 128-207)
